Laboratory results from patent publication US20200390811A1.

System: RISR-RIAD peptide with myc and ddk (FLAG) tags, expressed in T cells
Sequence (chain, as listed by the source): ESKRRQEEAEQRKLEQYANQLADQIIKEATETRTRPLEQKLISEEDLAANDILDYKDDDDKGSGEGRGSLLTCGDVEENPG

Protein kinase A (PKA), RI regulatory subunit
phosphorylation of Csk-S364 and Lck-Y505 (blot, FIG. 2): RISR-RIAD expression prevented phosphorylation of Csk-S364 and Lck-Y505
